From patent US20140087995A1 (published 2014)
Numbered stars: 1 amine (or outer) side, 2 acyl side, 3 side chain; on linkers, the order of the positions; unused ones are H or OH. Bridge positions count the residues as written; N and C are the ends. Side chains are listed from the residue outwards. Ends that are not written are not given here. * marks the point of attachment. C20 diacid = O=C(O)CCCCCCCCCCCCCCCCCCC(=O)*; γGlu = O=C(O)[C@H](CCC(=O)[*:2])N[*:1]; AEEA = NCCOCCOCC(=O)O

B1: N^ε1-[2-[2-[2-[[(4S)-4-carboxy-4-(19-carboxynonadecanoylamino)butanoyl]amino]ethoxy]ethoxy]acetyl]-[Arg14,Arg17,Pro21,Pro27]-h-amylin (peptide)
peptide: K([AEEA-γGlu-C20 diacid])CNTATCATQRLARFLRHSSPNFGAIPSSTNVGSNTY-NH2
modifications: disulfide 2-7; N-terminus assumed
SMILES: CC[C@H](C)[C@H](NC(=O)[C@H](C)NC(=O)CNC(=O)[C@H](Cc1ccccc1)NC(=O)[C@H](CC(N)=O)NC(=O)[C@@H]1CCCN1C(=O)[C@H](CO)NC(=O)[C@H](CO)NC(=O)[C@H](Cc1c[nH]cn1)NC(=O)[C@H](CCCNC(=N)N)NC(=O)[C@H](CC(C)C)NC(=O)[C@H](Cc1ccccc1)NC(=O)[C@H](CCCNC(=N)N)NC(=O)[C@H](C)NC(=O)[C@H](CC(C)C)NC(=O)[C@H](CCCNC(=N)N)NC(=O)[C@H](CCC(N)=O)NC(=O)[C@@H](NC(=O)[C@H](C)NC(=O)[C@@H]1CSSC[C@H](NC(=O)[C@@H](N)CCCCNC(=O)COCCOCCNC(=O)CC[C@H](NC(=O)CCCCCCCCCCCCCCCCCCC(=O)O)C(=O)O)C(=O)N[C@@H](CC(N)=O)C(=O)N[C@@H]([C@@H](C)O)C(=O)N[C@@H](C)C(=O)N[C@@H]([C@@H](C)O)C(=O)N1)[C@@H](C)O)C(=O)N1CCC[C@H]1C(=O)N[C@@H](CO)C(=O)N[C@@H](CO)C(=O)N[C@H](C(=O)N[C@@H](CC(N)=O)C(=O)N[C@H](C(=O)NCC(=O)N[C@@H](CO)C(=O)N[C@@H](CC(N)=O)C(=O)N[C@H](C(=O)N[C@@H](Cc1ccc(O)cc1)C(N)=O)[C@@H](C)O)C(C)C)[C@@H](C)O
notes: also called compound 82
B2: N^ε1-[2-[2-[2-[[(4S)-4-carboxy-4-(19-carboxynonadecanoylamino)butanoyl]amino]ethoxy]ethoxy]acetyl]-[Arg17,Pro21,Pro27,Arg34]-h-amylin (peptide)
peptide: K([AEEA-γGlu-C20 diacid])CNTATCATQRLANFLRHSSPNFGAIPSSTNVGRNTY-NH2
modifications: disulfide 2-7; N-terminus assumed
SMILES: CC[C@H](C)[C@H](NC(=O)[C@H](C)NC(=O)CNC(=O)[C@H](Cc1ccccc1)NC(=O)[C@H](CC(N)=O)NC(=O)[C@@H]1CCCN1C(=O)[C@H](CO)NC(=O)[C@H](CO)NC(=O)[C@H](Cc1c[nH]cn1)NC(=O)[C@H](CCCNC(=N)N)NC(=O)[C@H](CC(C)C)NC(=O)[C@H](Cc1ccccc1)NC(=O)[C@H](CC(N)=O)NC(=O)[C@H](C)NC(=O)[C@H](CC(C)C)NC(=O)[C@H](CCCNC(=N)N)NC(=O)[C@H](CCC(N)=O)NC(=O)[C@@H](NC(=O)[C@H](C)NC(=O)[C@@H]1CSSC[C@H](NC(=O)[C@@H](N)CCCCNC(=O)COCCOCCNC(=O)CC[C@H](NC(=O)CCCCCCCCCCCCCCCCCCC(=O)O)C(=O)O)C(=O)N[C@@H](CC(N)=O)C(=O)N[C@@H]([C@@H](C)O)C(=O)N[C@@H](C)C(=O)N[C@@H]([C@@H](C)O)C(=O)N1)[C@@H](C)O)C(=O)N1CCC[C@H]1C(=O)N[C@@H](CO)C(=O)N[C@@H](CO)C(=O)N[C@H](C(=O)N[C@@H](CC(N)=O)C(=O)N[C@H](C(=O)NCC(=O)N[C@@H](CCCNC(=N)N)C(=O)N[C@@H](CC(N)=O)C(=O)N[C@H](C(=O)N[C@@H](Cc1ccc(O)cc1)C(N)=O)[C@@H](C)O)C(C)C)[C@@H](C)O
notes: also called compound 78
B3: N^ε1-[2-[2-[2-[[(4S)-4-carboxy-4-(19-carboxynonadecanoylamino)butanoyl]amino]ethoxy]ethoxy]acetyl]-[Arg17,Pro21,Pro27,His34]-h-amylin (peptide)
peptide: K([AEEA-γGlu-C20 diacid])CNTATCATQRLANFLRHSSPNFGAIPSSTNVGHNTY-NH2
modifications: disulfide 2-7; N-terminus assumed
SMILES: CC[C@H](C)[C@H](NC(=O)[C@H](C)NC(=O)CNC(=O)[C@H](Cc1ccccc1)NC(=O)[C@H](CC(N)=O)NC(=O)[C@@H]1CCCN1C(=O)[C@H](CO)NC(=O)[C@H](CO)NC(=O)[C@H](Cc1c[nH]cn1)NC(=O)[C@H](CCCNC(=N)N)NC(=O)[C@H](CC(C)C)NC(=O)[C@H](Cc1ccccc1)NC(=O)[C@H](CC(N)=O)NC(=O)[C@H](C)NC(=O)[C@H](CC(C)C)NC(=O)[C@H](CCCNC(=N)N)NC(=O)[C@H](CCC(N)=O)NC(=O)[C@@H](NC(=O)[C@H](C)NC(=O)[C@@H]1CSSC[C@H](NC(=O)[C@@H](N)CCCCNC(=O)COCCOCCNC(=O)CC[C@H](NC(=O)CCCCCCCCCCCCCCCCCCC(=O)O)C(=O)O)C(=O)N[C@@H](CC(N)=O)C(=O)N[C@@H]([C@@H](C)O)C(=O)N[C@@H](C)C(=O)N[C@@H]([C@@H](C)O)C(=O)N1)[C@@H](C)O)C(=O)N1CCC[C@H]1C(=O)N[C@@H](CO)C(=O)N[C@@H](CO)C(=O)N[C@H](C(=O)N[C@@H](CC(N)=O)C(=O)N[C@H](C(=O)NCC(=O)N[C@@H](Cc1c[nH]cn1)C(=O)N[C@@H](CC(N)=O)C(=O)N[C@H](C(=O)N[C@@H](Cc1ccc(O)cc1)C(N)=O)[C@@H](C)O)C(C)C)[C@@H](C)O
notes: also called compound 76
B4: N^ε1-[2-[2-[2-[[(4S)-4-carboxy-4-(19-carboxynonadecanoylamino)butanoyl]amino]ethoxy]ethoxy]acetyl]-[Arg17,Pro21,Pro27,Glu35]-h-amylin (peptide)
peptide: K([AEEA-γGlu-C20 diacid])CNTATCATQRLANFLRHSSPNFGAIPSSTNVGSETY-NH2
modifications: disulfide 2-7; N-terminus assumed
SMILES: CC[C@H](C)[C@H](NC(=O)[C@H](C)NC(=O)CNC(=O)[C@H](Cc1ccccc1)NC(=O)[C@H](CC(N)=O)NC(=O)[C@@H]1CCCN1C(=O)[C@H](CO)NC(=O)[C@H](CO)NC(=O)[C@H](Cc1c[nH]cn1)NC(=O)[C@H](CCCNC(=N)N)NC(=O)[C@H](CC(C)C)NC(=O)[C@H](Cc1ccccc1)NC(=O)[C@H](CC(N)=O)NC(=O)[C@H](C)NC(=O)[C@H](CC(C)C)NC(=O)[C@H](CCCNC(=N)N)NC(=O)[C@H](CCC(N)=O)NC(=O)[C@@H](NC(=O)[C@H](C)NC(=O)[C@@H]1CSSC[C@H](NC(=O)[C@@H](N)CCCCNC(=O)COCCOCCNC(=O)CC[C@H](NC(=O)CCCCCCCCCCCCCCCCCCC(=O)O)C(=O)O)C(=O)N[C@@H](CC(N)=O)C(=O)N[C@@H]([C@@H](C)O)C(=O)N[C@@H](C)C(=O)N[C@@H]([C@@H](C)O)C(=O)N1)[C@@H](C)O)C(=O)N1CCC[C@H]1C(=O)N[C@@H](CO)C(=O)N[C@@H](CO)C(=O)N[C@H](C(=O)N[C@@H](CC(N)=O)C(=O)N[C@H](C(=O)NCC(=O)N[C@@H](CO)C(=O)N[C@@H](CCC(=O)O)C(=O)N[C@H](C(=O)N[C@@H](Cc1ccc(O)cc1)C(N)=O)[C@@H](C)O)C(C)C)[C@@H](C)O
notes: also called compound 26

Target: T1, human amylin 3(a) receptor (human calcitonin receptor co-expressed with RAMP-3) (human, UniProt P30988 25-474; O60896 24-148, limits assumed)
T1 sequence (looked up) 1: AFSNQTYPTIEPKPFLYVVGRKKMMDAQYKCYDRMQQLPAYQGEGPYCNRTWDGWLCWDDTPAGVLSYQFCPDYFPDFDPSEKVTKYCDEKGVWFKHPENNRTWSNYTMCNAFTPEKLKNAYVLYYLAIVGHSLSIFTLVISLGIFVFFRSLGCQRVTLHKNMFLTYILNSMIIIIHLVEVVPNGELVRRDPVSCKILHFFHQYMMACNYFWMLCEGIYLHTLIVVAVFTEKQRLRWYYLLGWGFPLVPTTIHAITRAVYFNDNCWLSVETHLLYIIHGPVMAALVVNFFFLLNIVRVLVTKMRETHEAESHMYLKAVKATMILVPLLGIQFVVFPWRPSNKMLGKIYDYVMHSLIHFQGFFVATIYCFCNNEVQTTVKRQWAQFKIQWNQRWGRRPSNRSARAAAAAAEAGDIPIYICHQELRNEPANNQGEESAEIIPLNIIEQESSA
T1 sequence (looked up) 2: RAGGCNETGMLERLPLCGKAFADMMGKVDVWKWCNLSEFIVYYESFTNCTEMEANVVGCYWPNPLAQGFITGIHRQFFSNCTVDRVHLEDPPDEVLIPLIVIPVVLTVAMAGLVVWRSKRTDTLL
Assay: cell-based or functional assay

Row | Binder | Ratio hCT/hAmylin funct. (hCTR EC50 over hAmylin-R EC50) | hAmylin-R funct. EC50 (pM)
1 | B1 | 59.2 | 215
2 | B2 | 25.8 | 316
3 | B3 | 24.8 | 297
4 | B4 | 29.9 | 212
